Results published in US6946588B2, “Nucleic acid encoding a modified threonine deaminase and methods of use” (Monsanto Technology LLC, priority 1996, dated 2005).

Key:
[1] = Storage stability of purified BktB; assay type: physicochemical; conditions: 10 mM Tris-HCl, pH 7.8, 1 mM DTT, 50% glycerol at −20° C.
Description: Purified BktB protein was prepared by growing E. coli EE36 transformed with pMON25754 in LB broth containing ampicillin (100μg/ml) overnight at 37° C. Cells were then harvested by centrifugation, and the pellet was resuspended in 50 mM KPi and 5% glycerol, sonicated, and the sonicate centrifuged to remove cellular debris. The cell extract was desalted using a PD-10 column (Pharmacia), and proteins resolved using a Pharmacia FPLC system and MonoQ anion-exchange column (Pharmacia). Buffer A was 10 mM Tris buffer, pH 7.8, plus 1 mM DTT; buffer B was buffer A plus 1 M KCl. The gradient was 0 to 10% B in 10 min, then to 35% B in 40 min. The flow rate was 1 ml/min, and the resolved proteins were collected at the rate of 1 ml/fraction. The BktB protein was found in fractions 20 to 27, with the maximum activity peak at fraction 23. […] The enzyme was stored in 10 mM Tris-HCl, pH 7.8, 1 mM DTT, 50% glycerol at −20° C.

[2] = tested on: A. eutrophus PhbA and BktB β-ketothiolases; experiment: β-Ketothiolase condensation assay with 1-14C-acetyl-CoA (PhbA, BktB); assay type: biochemical; conditions: 0.30 mM acetyl-CoA
Excerpt: As noted above, A. eutrophus can produce P(3HB-co-3HV) copolymer when provided with an appropriate C5 precursor. […] One of these β-ketothiolases, designated BktB herein, was encoded on plasmid pBK6. A. eutrophus BktB was obtained from E. coli DH5α transformed with plasmid pMON25754. pMON25754 was produced from the A. eutrophus pBK6 clone (Slater et al., 1988) by deleting a 5.0 kb XhoI fragment (there is an additional XhoI site approximately 5.0 kb 5′ to the XhoI site shown in FIG. 1 of Slater et al.). The pBK6 clone was produced by Slater et al. (1988) from A. eutrophus H16, i.e., ATCC accession number 17699, which is publicly available from the American Type Culture Collection, 12301 Parklawn Drive, Rockville, Md. 20852. BktB was overexpressed from its native promoter on the high copy plasmid pMON25754 by growing the cells overnight at 37° C. to stationary phase in LB broth containing ampicillin (100 μg/ml). A. eutrophus PhbA was obtained from E. coli DH5α transformed with pMON25636 (FIG. 20) by growing the cells at 37° C. in LB broth containing ampicillin (100 μg/ml) to early log phase and then inducing with IPTG. Cells were harvested after two hours of further growth.
The activity of β-ketothiolases can be assayed in both the condensation and thiolysis directions. However, condensation activity for products that are the result of a mixed condensation of acetyl-CoA and a longer chain acyl-CoA are difficult to measure. This is due to the difficulty in distinguishing between acetoacetyl-CoA, the product of condensing two acetyl-CoA molecules, and the mixed condensation reaction product, both of which form simultaneously. To date, condensation assays have been spectrophotometrically-based, but these are valid only when there is a single acyl-CoA substrate present (i.e., acetyl-CoA) since they cannot discriminate between the products formed. The assay described below represents the first reported assay that permits complete quantitation of all condensation products regardless of the nature of starting substrates.
β-ketothiolase assays designed to measure the condensation activity with acetyl-CoA plus either propionyl-CoA or butyryl-CoA were performed using 1-^14C-labelled acetyl-CoA. Since the equilibrium for the reaction lies heavily toward the starting acyl-CoAs rather than the condensed β-ketoacyl-CoA product, the latter was “pulled” to the corresponding β-hydroxyacyl-CoA using NADH and β-ketoacyl-CoA dehydrogenase. In addition, to avoid the strong feedback inhibition of β-ketothiolase by free CoA, each assay solution contained 5,5′-dithio-bis(2-nitrobenzoic acid) (DTNB) to trap chemically the free CoA produced by the reaction.
The condensation assay mixture (0.5 ml final volume) contained 100 mM KPi, pH 7.8, 0.5 mM NADH, 0.30 mM 1-^14C-acetyl-CoA (0.15 μCi), 5 units β-ketoacyl-CoA dehydrogenase, 0.5 mM DTNB, and variable propionyl- or butyryl-CoA as indicated in Table 5. The reaction was initiated by the addition of β-ketothiolase. Following 20 minutes at 30° C., each reaction mixture was quenched by the addition of 25 μl of 10% formic acid. Thirty μl of 25% H2SO4 were added to 200 μl of quenched reaction mix; this mixture was then incubated at 70° C. for 24 hours to hydrolyze all CoA thioesters to their free acids. Sixty μl of 5 M sodium formate were added to the sample to neutralize the pH, followed by analysis of a 130 μl aliquot using C18-reverse-phase HPLC (0.5×25 cm column). Detection and quantitation were carried out by monitoring flow-through with a Radiomatic flow detector. A gradient elution was employed using aqueous 1% acetic acid (solvent A) and acetonitrile (solvent B). […]

[3] = tested on: E. coli DH5α cells; experiment: PHA production by transformed E. coli DH5α on glucose and propionate (GC analysis); assay type: cell-based; conditions: Set 2 versus Set 1
Description: E. coli DH5α cells contining both sets of plasmids expressing all of the required PHA biosynthesis enzymes were grown on 50 ml of LB broth containing all three antibiotics supplemented with 0.75% glucose and 0.15% propionate. The tac promoters were induced with IPTG at a final concentration of 0.5 mM. Nalidixic acid was added to a final concentration of 60 μg/ml. The cells were grown under antibiotic selection (see above) for 24 hours and assayed for the presence of PHA polymer. Cells were centrifuged at 7,000 rpm for 20 min., washed with 25 ml methanol, recentrifuged, washed with 15 ml hexane, and recentrifuged. Cell pellets were dried under N2 for two hours, and the dry cell weights determined. 6.5 ml of chloroform were added to extract the PHA at 100° C. for one hour. The solution was cooled and filtered through a PTFE syringe filter (13 mm diameter, 0.45 μm pore). The PHA was precipitated by the addition of 50 ml of methanol, centrifuged, and washed with hexane. The polymer was dried at 70° C. for two hours, and polymer weight was determined. Methanolysis was performed by dissolving 3-5 mg of PHA sample by the addition of 1 ml of CHCl3, with methyl benzoate as an internal standard for normalization of the data. […] The solution was then analyzed by gas chromatography as described in the section entitled “In vivo Analysis of Cloned E. coli ilvA Genes”.

B1: BktB: A. eutrophus β-ketothiolase encoded on pBK6, amino acid sequence SEQ ID NO:11 (protein, listed as Alcaligenes eutrophus)
chain: MTREVVVVSGVRTAIGTFGGSLKDVAPAELGALVVREALARAQVSGDDVGHVVFGNVIQTEPRDMYLGRVAAVNGGVTINAPALTVNRLCGSGLQAIVSAAQTILLGDTDVAIGGGAESMSRAPYLAPAARWGARMGDAGLVDMMLGALHDPFHRIHMGVTAENVAKEYDISRAQQDEAALESHRRASAAIKAGYFKDQIVPVVSKGRKGDVTFDTDEHVRHDATIDDMTKLRPVFVKENGTVTAGNASGLNDAAAAVVMMERAEAERRGLKPLARLVSYGHAGVDPKAMGIGPVPATKIALERAGLQVSDLDVIEANEAFAAQACAVTKALGLDPAKVNPNGSGISLGHPIGATGALITVKALHELNRVQGRYALVTMCIGGGQGIAAIFERI
- stability of activity on storage [1]: Activity remained constant for a minimum of two months
- % Turnover C4 Product ([2]; butyryl-CoA 0.6 mM): 1.0%
- % Turnover C6 Product ([2]; butyryl-CoA 0.6 mM): 4.9%
- % Turnover C4 Product ([2]; butyryl-CoA 1.2 mM): 0.6%
- % Turnover C6 Product ([2]; butyryl-CoA 1.2 mM): 7.3%
- % Turnover C4 Product ([2]; butyryl-CoA 2.4 mM): 0.4%
- % Turnover C6 Product ([2]; butyryl-CoA 2.4 mM): 7.9%
- % Turnover C4 Product ([2]; propionyl-CoA 0 mM): 4.2%
- % Turnover C4 Product ([2]; propionyl-CoA 0.6 mM): 1.8%
- % Turnover C5 Product ([2]; propionyl-CoA 0.6 mM): 13.2%
- % Turnover C4 Product ([2]; propionyl-CoA 1.2 mM): 1.0%
- % Turnover C5 Product ([2]; propionyl-CoA 1.2 mM): 15.6%
- % Turnover C4 Product ([2]; propionyl-CoA 2.4 mM): 0.7%
- % Turnover C5 Product ([2]; propionyl-CoA 2.4 mM): 17.8%
- greater percentage of the C5 monomer than cells expressing the PhbA β-ketothiolase [3]: five-to-six-fold
